Assay results published in patent US20090068158A1, “THYMIDYLATE KINASE MUTANTS AND USES THEREOF” (priority 2005, published 2009).
Entries after “also recorded” stand apart in the source; their conditions may differ.

B1: wild-type tmpk: wild-type human thymidylate kinase overexpressed by LV transduction, comparator (protein, UniProt P23919 2-212, looked up)
Thymidylate kinase: AARRGALIVLEGVDRAGKSTQSRKLVEALCAAGHRAELLRFPERSTEIGKLLSSYLQKKSDVEDHSVHLLFSANRWEQVPLIKEKLSQGVTLVVDRYAFSGVAFTGAKENFSLDWCKQPDVGLPKPDLVLFLQLQLADAAKRGAFGHERYENGAFQERALRCFHQLMKDTTLNWKMVDASKSIEAVHEDIRVLSEDAIRTATEKPLGELWK
B2: R200A: modified human tmpk, R to A mutation at amino acid position 200 (SEQ ID NOS: 15 and 16) (protein, UniProt P23919 2-212, looked up, variant R200A)
Thymidylate kinase: AARRGALIVLEGVDRAGKSTQSRKLVEALCAAGHRAELLRFPERSTEIGKLLSSYLQKKSDVEDHSVHLLFSANRWEQVPLIKEKLSQGVTLVVDRYAFSGVAFTGAKENFSLDWCKQPDVGLPKPDLVLFLQLQLADAAKRGAFGHERYENGAFQERALRCFHQLMKDTTLNWKMVDASKSIEAVHEDIRVLSEDAIATATEKPLGELWK
B3: F105Y: modified human thymidylate kinase (tmpk), F to Y mutation at amino acid position 105 (SEQ ID NO: 11, 21) (protein, UniProt P23919 2-212, looked up, variant F105Y)
Thymidylate kinase: AARRGALIVLEGVDRAGKSTQSRKLVEALCAAGHRAELLRFPERSTEIGKLLSSYLQKKSDVEDHSVHLLFSANRWEQVPLIKEKLSQGVTLVVDRYAFSGVAYTGAKENFSLDWCKQPDVGLPKPDLVLFLQLQLADAAKRGAFGHERYENGAFQERALRCFHQLMKDTTLNWKMVDASKSIEAVHEDIRVLSEDAIRTATEKPLGELWK

What was measured:
[1] = test system: Jurkat cells; test: Loss of mitochondrial membrane potential after AZT (JC-1 staining, flow cytometry); assay type: cell-based, human; details: transduced Jurkat cells, 100 μM AZT
Protocol: Cells (10^6 cells) treated with (shown (+) in figure) or without (−) 100 μM AZT were stained with JC-1 for […] at 37° C., and then were analyzed by flow cytometry. ***, P<0.001, n=3.
(§1) Transduced cells […] were treated with 100 μM AZT for 4 days or left untreated. To detect changes in the mitochondrial inner membrane potential, the cells were incubated with 5,5′,6,6′-tetrachloro-1,1′,3,3′-tetraethylbenzimidazolylcarbocyanine iodide (JC-1, Molecular Probes Inc.) for 30 min at 37° C., and were then analyzed using a FACS Calibur. The activation of caspase-3 in cells was examined using the FACS Calibur following incubation with an FITC-labeled caspase 3 inhibitor peptide (FITC-DEVD-FMK, Calbiochem, San Diego, Calif.) for 1 hr at 37° C.

[2] = test system: Jurkat cells; test: AZT-induced apoptosis/cell killing under cell cycle arrest with indirubin-3'-oxime; assay type: cell-based, human
Protocol: Cells were seeded in 24-well plates (10^6/well) in 1 ml of medium containing 0 (shown in AZT (−) in figure) or 100 μM of AZT (shown in AZT (+)) with or without 5 μM indirubin-3′-oxime (Figure (B) and (A), respectively). The medium was refreshed daily. After 2 days of culture, induction of apoptosis by AZT was analyzed by annexin V staining according to the manufacturer's protocol described. **, P<0.01, n=3. Data are expressed as mean±SEM.
(§2) For evaluation of the induction of apoptosis, treated Jurkat clonal cells were stained with Annexin V. Briefly, cells were seeded in 24 well plates (10^6 cells/well) in 1 ml of medium with or without 100 μM AZT. After 4 days of culture, Annexin V staining was performed according to the manufacturer's protocol (Annexin V-APC: BD Pharmingen). For testing whether AZT-mediated cell killing depends on the cellular proliferation, indirubin-3′-monoxime (final concentration 5 μM, Sigma-Aldrich, St. Louis, Mo.) was added simultaneously with 100 μM AZT to the culture.
(§3) To simplify comparative studies a relative apoptotic index was calculated. Here data obtained was normalized by dividing results from AZT treated cells in each condition by the results obtained without added AZT. Values were reported as fold increases. Statistical significance between groups was calculated by ANOVA.

[3] = test system: Jurkat cells; test: Induction of apoptosis by 100 μM AZT in LV-tmpk-transduced Jurkat cells (annexin V staining); assay type: cell-based, human; details: 4 days; for early apoptotic cell index in response to AZT treatment: transduced Jurkat cells, n=3
Protocol: Cells were seeded in 24 well plates (10^6/well) in 1 ml of medium with or without 100 μM of AZT. The medium was changed daily. After 4 days of culture, induction of apoptosis in the cells were analyzed by annexin-V staining according to the manufacturer's protocol (Annexin V-APC: BD Pharmingen). **, P<0.01, n=3. Data are expressed as mean±SEM.
as §2, §3

[4] = test system: Jurkat cells; test: Activation of caspase 3 by AZT (FITC-DEVD-FMK, flow cytometry); assay type: cell-based, human; details: clonal Jurkat cells, 100 μM AZT, 4 days
Protocol: as §1

[5] = test system: Jurkat cells; test: AZT sensitivity of LV-tmpk-transduced Jurkat cells (MTT cell viability assay); assay type: cell-based, human; details: for cell viability upon addition of AZT (in words), Example 15: clonal Jurkat cells, AZT up to 1 mM, 4 days
Protocol: Transduced Jurkat cells and the single-cell clones were seeded in 96 well plates (2×10^5/well) in 200 μl of medium containing increasing concentrations of AZT (0, 1, 10 and 100 μM). The medium was changed daily. […] Data are expressed as mean±standard error of mean (SEM).
To examine the AZT-mediated celikilling activity of tmpk cDNA, each of transduced cells were incubated with the increasing concentration of AZT. After incubating both non-transduced and LV-transduced cells with AZT for […], cell viability was determined using MTT assay (FIG. 4A).
Transduced Jurkat cells and single-cell clones were seeded in 96 well plates (2×10^5 cells/well) in 200 μl of the RPMI medium described above with increasing concentrations of AZT (0, 0.1, 1, 10, 100 μM, and 1 mM). The medium was changed daily. After 4 days of culture, cell viability was determined by using Cell Titer 96 Aqueous One Solution Cell Proliferation Assay kit (Promega, Madison, Wis.).

[6] = test system: Jurkat cells; test: HPLC determination of intracellular AZT metabolites in cells treated with 100 μM AZT; assay type: cell-based, human
Protocol: The cells were cultured in the presence of 100 μM AZT for 36 hrs. 10^7 cells were homogenized by sonication in 100 μl of 5% (w/v) trichloroacetic acid. The supernatant is collected after homogenate had been centrifuged at 10,000×g for 15 min at 4° C. The trichloroacetic acid was removed by extraction with an equal volume of 20% tri-n-octylamine in pentane. The neutralized aqueous fraction is directly injected into HPLC. Separation of AZT and its metabolites was performed on a C18 column (Waters) with a mobile phase composed of 0.2 M phosphate buffer containing 4 mM tetrabutylammonium hydrogen sulfate (pH 7.5) and acetonitrile in the ratio of 97:3 (v/v). The mobile phase was pumped at a flow rate of 1.5 ml/min. The UV absorbance was monitored at 270 nm. Five million cell equivalents were injected and analyzed in triplicate.
Cells were cultured in the presence of 100 μM AZT for 36 h. 10^7 cells were homogenized by sonication in 100 μl of 5% (w/v) trichloroacetic acid (TCA). The supernatant was collected after centrifugation at 10,000×g for 15 min at 4° C. TCA was removed by extraction with an equal volume of 20% tri-n-octylamine in pentane. The neutralized aqueous fraction was directly injected into the HPLC machine (Waters, Milford. MA). Separation of AZT and its metabolites were performed on a C18 column (Waters), with a mobile phase composed of 0.2 M phosphate buffer containing 4 mM tetrabutylammonium hydrogen sulfate (pH 7.5) and acetonitrile in the ratio of 97:3 (v/v)^48 at a flow rate of 1.5 ml/min. The UV absorbance was monitored at 270 nm. Standards for each AZT-metabolite (AZT-MP, AZT-DP, and AZT-TP) were purchased from Moravek Biochemicals (Brea, Calif.). Five million cell equivalents were injected and analyzed in triplicate.

[7] = test system: K562 cells; test: Growth of transduced K562 cells xenografted into AZT-treated NOD/SCID mice; assay type: in vivo; details: for tumor size / final tumor volume: transduced K562 cells sc in NOD/SCID mice, four and a half weeks past injection
Protocol: Female or male 5 to 8-week-old non-obese diabetic/severe combined immunodeficient (NOD/SCID) mice were purchased from Jackson Laboratory. Lentivirally-transduced or non-transduced K562 cells (20×10^6 cells) were resuspended in 0.5 mL Dulbecco's phosphate-buffered saline (D-PBS) per inoculum and injected subcutaneously (SC) into the right flanks of recipient mice. AZT treatment, which was administered intraperitoneally (IP) at the dose of 2.5 mg/kg/day, was started one day after injection and conducted for 14 days. In vivo tumor cell growth was monitored by measuring tumor size for up to 32 days post-inoculations. All experimental data were reproduced at least twice.
Transduced K562 cells were affinity-purified by MACS using magnetic beads conjugated with an anti-human CD19 monoclonal antibody (Miltenyi Biotec Inc., Auburn, Calif.). The purity of the cells following isolation was evaluated by FACS Calibur. Non-obese diabetic/severe combined immunodeficiency (NOD/SCID) mice (5 to 8-weeks old, purchased from Jackson Laboratories, Bar Harbor, Me.) were maintained at the Animal Resource Centre at the Princess Margaret Hospital (Toronto, ON, Canada). The entire animal experimental procedure followed a protocol approved by the Animal Care Committee of the UHN. Experimental groups consisted of male and female NOD/SCID mice injected with 2×10^7 K562 cells (resuspended in 0.5 mL D-PBS; Oxoid, Basingstoke, England) that were either lentivirally-transduced (n=10 for each LV) or non-transduced (NT) (n=10). Injections were performed subcutaneously (sc) into the dorsal right flanks of recipient mice as previously described^49. One day after injection of the cells, half of the mice in each group (n=5) began receiving daily AZT injections, administered intraperitoneally (ip) at a dose of 2.5 mg/kg/day for 14 days. Tumor growth was measured by caliper and calculated as 0.5×length×width^2 (in mm^3) for up to […].

[8] = Enzymatic activity of tmpk mutants for AZT-MP; assay type: biochemical, human
[9] = test system: primary human T cells; test: Induction of apoptosis by AZT in transduced primary human T cells (annexin V); assay type: cell-based; details: 100 μM AZT, 4 days
Protocol: Human T lymphocytes were isolated from PBMNCs contained within heparinized blood obtained from healthy human donors by Ficoll-Hypaque (GE Healthcare) separations. Mouse T cells were prepared from B cell-depleted splenocyte preparations using goat anti-mouse IgG beads (BioMag, Qiagen, Mississauga, ON). T cells were activated by using anti-CD3 and anti-CD28 coated beads (PMID: 12855580) in a ratio of 1:3 (cell:beads) with 20 IU/mL of recombinant human interleukin 2 (R&D Systems, Minneapolis, Minn.) for 3 days. Cells were infected with concentrated virus stocks for 3 h on ice using an indicated MOI in the presence of 8 μg/ml protamine sulfate. Infected cells were then kept in culture for 5 days prior to evaluating gene transfer efficiency. Gene transfer efficiencies were measured by flow cytometry using a monoclonal anti-human CD19-antibody conjugated with phycoerythrin (PE) as described above. Induction of apoptosis following AZT-exposure was evaluated by Annexin V-staining as above.

Row | Molecule | loss of mitochondrial (inner) membrane potential after AZT treatment (in words) [1] | apoptotic index with AZT in presence of indirubin-3'-monoxime (in words) ([2]; clonal Jurkat cells, 100 μM AZT + 5 μM indirubin-3'-monoxime, 4 days) | cells killed by AZT after cell cycle arrest ([2]; transduced Jurkat cells, indirubin-3'-oxime 5 μM, 100 μM AZT, 2 days) [%] | early apoptotic cell index in response to AZT treatment [3] [%] | activation of caspase 3 by AZT (in words) [4] | cell viability upon addition of AZT (in words), Example 15 [5] | AZT sensitivity / cell killing of transduced cells (in words) ([5]; transduced Jurkat cells, AZT up to 100 μM) | intracellular ratio of AZT-TP to AZT-MP ([6]; LV-transduced Jurkat cells, 100 μM AZT for 36 h) | conversion of AZT-MP / accumulation of AZT-TP (in words) ([6]; clonal Jurkat cells, 100 μM AZT 36 h) | tumor growth under AZT (in words), Example 8/10 ([7]; transduced K562 cells in NOD/SCID mice, AZT 2.5 mg/kg for two weeks) | tumor size / final tumor volume ([7]; AZT 2.5 mg/kg for two weeks) | enzymatic activity / catalytic conversion compared to wild-type tmpk (in words) [8] | fold increase of apoptotic index by AZT in presence of indirubin-3'-monoxime ([2]; clonal Jurkat cells, 100 μM AZT + 5 μM indirubin-3'-monoxime, 4 days, normalized to no AZT) [fold] | fold increase of apoptotic index by AZT-treatment ([3]; clonal Jurkat cells, normalized to no AZT) [fold] | fold increase in percentage of activated caspase 3-positive cells by AZT ([4]; normalized to no AZT) [fold] | fold increase of apoptotic index by AZT [9] [fold] | tumor growth under daily AZT (in words), Example 15 ([7]; 2×10^7 transduced K562 cells sc in NOD/SCID mice, AZT 2.5 mg/kg/day ip for two weeks, day 14)
1 | B1 | did not demonstrate a similar loss of mitochondrial inner membrane potential | No significant increases | 2 | 6.2±0.3 | slight, but significant, increase | limited cell killing | non-sensitive to AZT up to 100 μM; also recorded: unaffected by AZT up to 100 μM | 0.10 | no significant increases in the accumulation of AZT-TP | no significant reduction in tumor volume | 2000 mm^2 |  |  |  |  |  | 
2 | B2 |  |  |  |  |  |  |  |  |  |  |  | superior enzymatic activity |  |  |  |  | 
3 | B3 | significant increase |  |  | 40.7±1.7 |  | minimally viable |  |  |  |  | 100-300 mm^2 | substantially increased catalytic conversion of AZT; also recorded: superior enzymatic activity | 2.3±0.4 | 9.5±0.8 | 4.6±0.1 | 4.0±0.3 | strongly inhibited; also recorded: suppression of tumor growth
